{"source": "patent US20080274993", "system": "DSCR1-FLAG (human Down syndrome critical region 1, C-terminal FLAG epitope)", "sequence (chain, as listed by the source)": "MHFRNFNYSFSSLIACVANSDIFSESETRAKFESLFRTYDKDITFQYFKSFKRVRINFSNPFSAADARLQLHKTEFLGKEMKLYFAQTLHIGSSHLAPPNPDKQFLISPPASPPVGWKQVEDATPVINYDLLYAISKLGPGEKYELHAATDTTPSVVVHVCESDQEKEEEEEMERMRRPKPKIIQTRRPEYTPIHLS", "data": [{"substance": "calcineurin A (CnA)", "values": [{"measurement": "NFATc1 phosphorylation status (Western blot of extracts of activated HUVECs)", "result": "a shift from the dephosphorylated form of NFATc1 to the phosphorylated form in response to DSCR1"}]}]}
